The subject of the data set is N[C@H](COP(=O)(O)O)Cc1c[nH]cn1. Briefly: purified protein. As to conditions: 100 mM Tris/HCl pH 7.8, 5 mM MgCl2, 25°C.

What is called Km is the concentration of substrate that gives half-maximal velocity. In general, kcat refers to the maximal rate divided by the concentration of active sites. What is called kcat/Km is the turnover number divided by the Michaelis constant.

For ecHisB‐N (Escherichia coli K-12), the Km is 48 ± 3 µM, the kcat amounted to 2.8 ± 0.1 s⁻¹ and the kcat/Km was found to be 58000 M⁻¹ s⁻¹.
